Starred links: 1 amine or outer side, 2 acyl side, 3 side chain; linkers in the order of their positions; H or OH if unused. Non-standard residues stand in square brackets, D forms with d. Groups on a side chain read outwards from the residue. No end group written: not given here. *: point of attachment. C18 diacid = O=C(O)CCCCCCCCCCCCCCCCC(=O)*; γGlu = O=C(O)[C@H](CCC(=O)[*:2])N[*:1]; AEEA = NCCOCCOCC(=O)O; Aib = CC(C)(N)C(=O)O
T1: anti-target CRF1R receptor (UniProt P34998 24-415, limits assumed)
T1 sequence (looked up): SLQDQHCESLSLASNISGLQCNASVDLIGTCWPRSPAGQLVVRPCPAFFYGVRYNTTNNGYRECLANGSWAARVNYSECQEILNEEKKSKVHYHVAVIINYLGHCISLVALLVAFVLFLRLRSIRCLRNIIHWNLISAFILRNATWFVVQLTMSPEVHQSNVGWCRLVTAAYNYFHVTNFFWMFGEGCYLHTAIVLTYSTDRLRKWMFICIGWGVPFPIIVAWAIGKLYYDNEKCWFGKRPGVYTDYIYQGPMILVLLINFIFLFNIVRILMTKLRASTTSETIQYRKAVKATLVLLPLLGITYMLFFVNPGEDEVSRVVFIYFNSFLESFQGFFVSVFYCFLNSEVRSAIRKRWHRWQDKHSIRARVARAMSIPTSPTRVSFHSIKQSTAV

T2: endogenous human CRF2 (NCI-H82 cells) (human, UniProt Q13324 20-411)
T2 sequence (looked up): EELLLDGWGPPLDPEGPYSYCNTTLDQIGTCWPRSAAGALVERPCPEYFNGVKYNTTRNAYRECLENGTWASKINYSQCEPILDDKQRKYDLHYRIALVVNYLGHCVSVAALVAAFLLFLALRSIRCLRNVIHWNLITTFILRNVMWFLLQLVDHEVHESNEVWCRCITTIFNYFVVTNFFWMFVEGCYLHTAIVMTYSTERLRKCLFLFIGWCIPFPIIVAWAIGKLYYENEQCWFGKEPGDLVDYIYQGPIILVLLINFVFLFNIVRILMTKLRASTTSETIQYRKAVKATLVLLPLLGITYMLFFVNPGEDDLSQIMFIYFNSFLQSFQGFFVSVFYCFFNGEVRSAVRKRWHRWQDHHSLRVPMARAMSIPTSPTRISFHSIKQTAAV

B1: peptide of SEQ ID NO: 151 (peptide)
peptide: IVLSLD[dV]PIGLK([AEEA-AEEA-γGlu-C18 diacid])QILLKQERQKK[Aib]REQAEKNKRILERV-NH2
modifications: N-terminus assumed
SMILES: CC[C@H](C)[C@H](N)C(=O)N[C@H](C(=O)N[C@@H](CC(C)C)C(=O)N[C@@H](CO)C(=O)N[C@@H](CC(C)C)C(=O)N[C@@H](CC(=O)O)C(=O)N[C@@H](C(=O)N1CCC[C@H]1C(=O)N[C@H](C(=O)NCC(=O)N[C@@H](CC(C)C)C(=O)N[C@@H](CCCCNC(=O)COCCOCCNC(=O)COCCOCCNC(=O)CC[C@H](NC(=O)CCCCCCCCCCCCCCCCC(=O)O)C(=O)O)C(=O)N[C@@H](CCC(N)=O)C(=O)N[C@H](C(=O)N[C@@H](CC(C)C)C(=O)N[C@@H](CC(C)C)C(=O)N[C@@H](CCCCN)C(=O)N[C@@H](CCC(N)=O)C(=O)N[C@@H](CCC(=O)O)C(=O)N[C@@H](CCCNC(=N)N)C(=O)N[C@@H](CCC(N)=O)C(=O)N[C@@H](CCCCN)C(=O)N[C@@H](CCCCN)C(=O)NC(C)(C)C(=O)N[C@@H](CCCNC(=N)N)C(=O)N[C@@H](CCC(=O)O)C(=O)N[C@@H](CCC(N)=O)C(=O)N[C@@H](C)C(=O)N[C@@H](CCC(=O)O)C(=O)N[C@@H](CCCCN)C(=O)N[C@@H](CC(N)=O)C(=O)N[C@@H](CCCCN)C(=O)N[C@@H](CCCNC(=N)N)C(=O)N[C@H](C(=O)N[C@@H](CC(C)C)C(=O)N[C@@H](CCC(=O)O)C(=O)N[C@@H](CCCNC(=N)N)C(=O)N[C@H](C(N)=O)C(C)C)[C@@H](C)CC)[C@@H](C)CC)[C@@H](C)CC)C(C)C)C(C)C
B2: peptide of SEQ ID NO: 147 (peptide)
peptide: IVLSLD[dV]PIGLK([AEEA-AEEA-γGlu-C18 diacid])QILLKQERQKK[Aib]REQAETNKQILAQV-NH2
modifications: N-terminus assumed
SMILES: CC[C@H](C)[C@H](N)C(=O)N[C@H](C(=O)N[C@@H](CC(C)C)C(=O)N[C@@H](CO)C(=O)N[C@@H](CC(C)C)C(=O)N[C@@H](CC(=O)O)C(=O)N[C@@H](C(=O)N1CCC[C@H]1C(=O)N[C@H](C(=O)NCC(=O)N[C@@H](CC(C)C)C(=O)N[C@@H](CCCCNC(=O)COCCOCCNC(=O)COCCOCCNC(=O)CC[C@H](NC(=O)CCCCCCCCCCCCCCCCC(=O)O)C(=O)O)C(=O)N[C@@H](CCC(N)=O)C(=O)N[C@H](C(=O)N[C@@H](CC(C)C)C(=O)N[C@@H](CC(C)C)C(=O)N[C@@H](CCCCN)C(=O)N[C@@H](CCC(N)=O)C(=O)N[C@@H](CCC(=O)O)C(=O)N[C@@H](CCCNC(=N)N)C(=O)N[C@@H](CCC(N)=O)C(=O)N[C@@H](CCCCN)C(=O)N[C@@H](CCCCN)C(=O)NC(C)(C)C(=O)N[C@@H](CCCNC(=N)N)C(=O)N[C@@H](CCC(=O)O)C(=O)N[C@@H](CCC(N)=O)C(=O)N[C@@H](C)C(=O)N[C@@H](CCC(=O)O)C(=O)N[C@H](C(=O)N[C@@H](CC(N)=O)C(=O)N[C@@H](CCCCN)C(=O)N[C@@H](CCC(N)=O)C(=O)N[C@H](C(=O)N[C@@H](CC(C)C)C(=O)N[C@@H](C)C(=O)N[C@@H](CCC(N)=O)C(=O)N[C@H](C(N)=O)C(C)C)[C@@H](C)CC)[C@@H](C)O)[C@@H](C)CC)[C@@H](C)CC)C(C)C)C(C)C

Tests used:
Test in all cases: cell-based or functional assay
rat CRF2R α receptor = rat CRF2R α receptor (rat, UniProt P47866 20-411)
[1] = target: T1, anti-target CRF1R receptor
[2] = target: T2, endogenous human CRF2 (NCI-H82 cells)

Binder	EC50 [nM], 0% HSA (cAMP, A7R5 cells) (rat CRF2R α receptor) [nM]	EC50[nM] 0% HSA (cAMP, CRF1R-overexpression CHO cells) [1] [nM]	Emax (%) (cAMP, CRF1R-overexpression CHO cells) [1]	EC50 [nM] (cAMP, NCI-H82 cells) [2]
B1	0.49	> 1000	9.07	7.4
B2	2.53	> 1000	4.54	13
